The record followed here is patent publication US20220031857A1 (OSSIANIX, published 2022).

In test [1] the target is T1, human serum albumin (human, UniProt P02768 25-609).
T1 construct: Negative control protein; also called HSA
The test is described as follows: phage ELISA. (In an ELISA, binding on a coated surface is turned into a signal by an enzyme label.)

Test [2] deals with T2, recombinant mouse TfR1 (transferrin receptor 1) (mouse, UniProt Q62351 89-763).
T2 construct: Bought recombinant His-tagged protein; also called mTfR1
T2 sequence (Q62351 89-763 limits assumed): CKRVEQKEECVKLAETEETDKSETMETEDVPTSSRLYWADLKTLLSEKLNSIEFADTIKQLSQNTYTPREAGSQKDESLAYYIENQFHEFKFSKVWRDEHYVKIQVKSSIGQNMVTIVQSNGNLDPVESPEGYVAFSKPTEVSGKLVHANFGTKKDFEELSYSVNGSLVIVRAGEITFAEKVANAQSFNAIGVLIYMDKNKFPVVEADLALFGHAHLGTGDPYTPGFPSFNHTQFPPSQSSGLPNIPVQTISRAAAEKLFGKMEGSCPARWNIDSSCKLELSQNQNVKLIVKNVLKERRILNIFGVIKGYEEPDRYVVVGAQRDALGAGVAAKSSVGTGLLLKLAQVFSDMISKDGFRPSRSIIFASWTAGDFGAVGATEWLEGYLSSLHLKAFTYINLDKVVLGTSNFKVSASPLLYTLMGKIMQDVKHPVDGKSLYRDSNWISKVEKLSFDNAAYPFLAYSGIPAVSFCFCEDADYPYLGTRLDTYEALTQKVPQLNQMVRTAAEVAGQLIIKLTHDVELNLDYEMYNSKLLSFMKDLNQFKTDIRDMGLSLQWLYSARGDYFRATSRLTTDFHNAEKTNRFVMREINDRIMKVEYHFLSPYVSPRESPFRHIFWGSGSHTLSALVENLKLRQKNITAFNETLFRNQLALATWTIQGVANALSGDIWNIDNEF
The test can be described thus: phage ELISA.

The target in test [3] is T3, recombinant mouse TfR2 (mouse, UniProt Q9JKX3 103-798, limits assumed).
T3 construct: Negative control protein
T3 sequence (looked up): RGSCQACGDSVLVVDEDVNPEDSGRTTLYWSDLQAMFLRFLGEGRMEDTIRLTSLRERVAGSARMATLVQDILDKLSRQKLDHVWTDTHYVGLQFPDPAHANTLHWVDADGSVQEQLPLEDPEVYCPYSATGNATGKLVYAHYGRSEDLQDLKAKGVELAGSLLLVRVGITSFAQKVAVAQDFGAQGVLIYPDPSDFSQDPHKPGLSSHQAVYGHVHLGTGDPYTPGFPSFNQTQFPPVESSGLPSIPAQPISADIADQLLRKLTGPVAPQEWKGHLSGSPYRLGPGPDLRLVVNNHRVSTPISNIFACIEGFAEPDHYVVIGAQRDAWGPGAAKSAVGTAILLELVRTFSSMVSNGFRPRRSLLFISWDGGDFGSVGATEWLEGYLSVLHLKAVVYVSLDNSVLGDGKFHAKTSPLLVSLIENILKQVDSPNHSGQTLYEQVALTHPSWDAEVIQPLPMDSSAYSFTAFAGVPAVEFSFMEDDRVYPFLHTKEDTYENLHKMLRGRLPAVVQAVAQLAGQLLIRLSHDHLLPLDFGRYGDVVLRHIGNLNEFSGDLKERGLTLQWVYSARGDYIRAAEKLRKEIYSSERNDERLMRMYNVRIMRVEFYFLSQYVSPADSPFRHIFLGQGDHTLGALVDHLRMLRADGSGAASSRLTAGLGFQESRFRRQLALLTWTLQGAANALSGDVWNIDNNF
The test is described as follows: phage ELISA.

The target in test [4] is T4, recombinant human TfR1 (transferrin receptor 1) (human, UniProt P02786 89-760).
T4 construct: Bought recombinant His-tagged protein; also called hTfR1
T4 sequence (P02786 89-760 limits assumed): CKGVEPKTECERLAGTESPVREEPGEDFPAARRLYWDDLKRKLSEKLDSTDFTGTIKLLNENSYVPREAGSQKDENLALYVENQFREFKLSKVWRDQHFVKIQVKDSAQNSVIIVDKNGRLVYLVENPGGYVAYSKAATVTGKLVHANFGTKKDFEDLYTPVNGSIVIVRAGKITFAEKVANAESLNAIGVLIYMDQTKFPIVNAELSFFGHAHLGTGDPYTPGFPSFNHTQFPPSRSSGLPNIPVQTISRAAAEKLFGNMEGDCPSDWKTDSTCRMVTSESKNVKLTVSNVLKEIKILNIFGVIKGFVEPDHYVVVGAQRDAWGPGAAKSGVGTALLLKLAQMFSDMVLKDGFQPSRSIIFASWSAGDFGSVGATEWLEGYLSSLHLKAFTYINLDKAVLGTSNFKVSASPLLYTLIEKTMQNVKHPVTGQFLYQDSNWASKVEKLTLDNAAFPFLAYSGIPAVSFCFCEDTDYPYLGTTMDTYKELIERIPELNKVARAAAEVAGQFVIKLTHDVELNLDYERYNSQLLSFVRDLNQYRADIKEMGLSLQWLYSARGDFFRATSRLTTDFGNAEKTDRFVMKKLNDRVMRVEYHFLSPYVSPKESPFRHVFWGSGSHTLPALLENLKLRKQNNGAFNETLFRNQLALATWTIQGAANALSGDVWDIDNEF
The test is described as follows: phage ELISA.

Test [5] deals with T1, human serum albumin. The test can be described thus: ELISA with Expi293 culture medium used directly, coated HSA, anti-Fc detection. The method, then:
(§1) FIG. 6. […] The VNAR-Fc fusion proteins were transiently expressed using Expi293 expression system. VNAR-Fc constructs contained signal peptide sequence in order to be secreted. Cell growth media was used directly in ELISA. HSA and mouse TfR2 were used as negative controls for unspecific binding. A clone in position 52 represents untransfected cells. Total Fc concentration was measured with capture and detection anti-Fc antibody pair using irrelevant VNAR-Fc at known concentration for standard curve.
(§2) The next day the plates were blocked with […] with 0.1% Tween20 (PBST) for 1 hour at room temperature. Transfected cells were spun down at 2000 rpm for 10 minutes and the collected supernatant was mixed with milk in PBST to a final 2.5% concentration and incubated for 30 minutes. 100 μl of blocked supernatant was transferred into coated plates and incubated for 1 hour. […] The plates were washed and developed with TMB detection solution before stopping the reaction with 1% HCl. Absorbance was measured at 450 nm. A VNAR-Fc at know concentration was used for standard curve to calculate VNAR-Fc expression level.

Test [6] concerns the target T4, recombinant human TfR1 (transferrin …). The test is described as follows: ELISA, plate coated with 1 µg/ml recombinant human TfR1, purified VNAR-Fc titrated, 4-parameter fit. The method, then:
(§3) It was previously reported that affinity might play a crucial role in TfR1 mediated brain penetration. […] Affinity estimation and unspecific binding was initially assessed using ELISA for human and mouse TfR1.
as §2

Test [7] concerns the target T2, recombinant mouse TfR1 (transferrin …). The test can be described thus: ELISA, plate coated with 1 µg/ml recombinant mouse TfR1, purified VNAR-Fc titrated, 4-parameter fit. As for the experimental part: as §3, §2
Test [8] concerns the target T3, recombinant mouse TfR2. The test is described as follows: ELISA with Expi293 culture medium used directly, coated mouse TfR2, anti-Fc detection. The method, then:
as §1, §2

Test [9] addresses T4, recombinant human TfR1 (transferrin …). The test is described as follows: Octet, human TfR1 immobilised; 8D3 as first antibody, which does not bind human TfR1 (grey column); white cell. The method, then: FIGS. 15A and 15B. Epitope binning by cross-competition binding to mouse and human TfR1. VNAR-Fc fusion proteins were tested for cross-blocking in a pairwise manner against mouse (A) and human TfR1 (B) immobilised on biosensors using the Octet platform.
A series of biochemical parameters was examined to further characterize the panel VNAR to TfR1 obtained from in vivo phage display selections. Epitope binning experiments were performed to assess whether the VNARs could compete against each other for binding to either the mouse or human TfR1. […] Because each VNAR binds via a unique CDR3 region with a different structural topography, steric interactions could be important efficient transcytosis.
For orientation: Biolayer interferometry detects binding as a change in optical thickness at a sensor tip.

In test [10] the target is T2, recombinant mouse TfR1 (transferrin …). The test is described as follows: Octet, mouse TfR1 on anti-His biosensors, analyte 10 nM, PBS pH 6.0. The method, then:
(§4) Binding kinetics of selected VNAR-Fcs to mouse TfR1 at pH 7.2 and pH 6.0 was measured by […] (Octet). Mouse TfR1 (10 μg/ml) was immobilised on anti-His biosensors and the binding kinetics of VNAR-Fcs and 8D3 antibody (10 nM) was measured at pH 7.2 and pH 6.0 in phosphate buffered saline (PBS) (Table 8).

For test [11] the target is unchanged. The test can be described thus: ELISA on mouse TfR1.
For test [12] the target is unchanged. The test is described as follows: Octet, mouse TfR1 on anti-His biosensors, analyte 10 nM, PBS pH 7.2. The method, then: as §4
Test [13] shares this target. The test can be described thus: SPR (Biacore), single-cycle kinetics, His-tagged TfR1 captured, VNAR-Fc injected. The method, then: (§5) Binding kinetics of VNAR-Fcs was determined by surface plasmon resonance (Biacore T200, GE Healthcare). CM5 chips were coated with anti-His antibodies (His Capture Kit, GE Healthcare) as recommended by the manufacturer and human or mouse his-tagged TfR1 (SinoBiological) at 10 ug/mL in HBS-EP+ (GE Healthcare) was captured at flow rate 10 ul/min (contact time 120 s). […] A flow cell without TfR1 captured served as a reference. Sensorgrams were fitted and kinetic constants were determined using Biacore T200 Evaluation software. Chips were regenerated in 10 mM Glycine-HCl, pH 1.5 (contact time: 120 s at flow rate 30 ul/min).
(SPR reads the build-up and loss of mass on a sensor chip optically.)

Test [14] concerns the target T4, recombinant human TfR1 (transferrin …). The description is as above. As for the experimental part: as §5

As a reminder, the EC50 is the midpoint of the concentration-response curve. By Kd is commonly meant a measure of binding affinity in units of concentration. One may read the koff as a measure of how fast the partners let go of each other. By kon is commonly meant the second-order rate constant of association.

T1 sequence (P02768 25-609 limits assumed): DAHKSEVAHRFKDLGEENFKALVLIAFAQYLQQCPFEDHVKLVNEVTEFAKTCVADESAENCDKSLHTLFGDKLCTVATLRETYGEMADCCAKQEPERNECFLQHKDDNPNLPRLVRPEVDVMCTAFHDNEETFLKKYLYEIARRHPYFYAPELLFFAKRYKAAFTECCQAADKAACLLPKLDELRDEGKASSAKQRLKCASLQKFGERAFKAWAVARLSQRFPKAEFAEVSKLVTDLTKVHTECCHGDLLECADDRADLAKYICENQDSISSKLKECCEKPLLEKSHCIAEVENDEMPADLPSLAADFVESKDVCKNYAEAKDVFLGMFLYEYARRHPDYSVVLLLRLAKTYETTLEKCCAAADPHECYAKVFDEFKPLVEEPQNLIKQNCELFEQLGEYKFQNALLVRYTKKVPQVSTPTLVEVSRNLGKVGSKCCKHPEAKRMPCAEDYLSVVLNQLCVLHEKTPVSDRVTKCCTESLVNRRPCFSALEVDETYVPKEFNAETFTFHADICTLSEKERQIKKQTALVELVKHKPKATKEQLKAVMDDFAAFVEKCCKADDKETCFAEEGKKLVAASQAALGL

B1: SEQ ID NO 51 (VNAR clone displayed on phage) (VNAR)
VNAR: ARVDQTPRSVTKETGESLTINCVLRDASYALGSTCWYRKKSGSTNEESISKGGRYVETVNSGSKSFSLRINDLTVEDSGTYRCNVIQYLYLGSYFACDVYGGGTVVTVNA
notes: shark VNAR domain on M13 phage; coat-protein fusion not described
For the molecule B1, the binding result with human serum albumin [1] is on record as “no binding”; in test [2], “binds”; in the test with recombinant mouse TfR2 [3] it was “no binding”; in test [4] it was “binds”.

B2: Clone 12 VNAR-Fc fusion protein (Fc fusion)
chain: ARVDQTPQTITKETGESLTINCVLRDSICALSSTHWYRKKSGSTNEESISKGGRYVETVNSGSKSFSLRINDLTVEDSGTYRCKVVRSGVGPCWADVYGGGTAVTVNA
notes: Bivalent VNAR-Fc; not shown: glycine/serine linker (GxSx)n extending the hinge; human IgG1 Fc (hinge, CH2, CH3) of pFUSE-hIgG1e3-Fc2; G236 also deleted
In the case of B2, the binding result with human serum albumin [5] and with recombinant mouse TfR2 [8] was “no binding” throughout. Also, the results for the 50% effective concentration (EC50) in test [6] and in [7] were 151 nM and 1560 nM, respectively. In addition, the “Octet signal as second antibody after 8D3” value in [9] is 0.403.

B3: Clone 10 VNAR-Fc fusion protein (Fc fusion)
chain: ARVDQTPQTITKETGESLTINCVLRDSNCALSSTYWYRKKSGSTNEENISKGGRYVETVNSGSKSFSLRINDLTVEDSGTYRCNVVQYPSYNNYFWCDVYGDGTAVTVNA
notes: Bivalent VNAR-Fc; also called clone 10-Fc; Clone 10-hFc; not shown: glycine/serine linker (GxSx)n extending the hinge; human IgG1 Fc (hinge, CH2, CH3) of pFUSE-hIgG1e3-Fc2; G236 also deleted
B3: the Kd in test [10] worked out at 0.419 nM; in test [12], 0.0703 nM; in test [13], 0.408 nM; in [14], 0.523 nM. The off-rate constant (koff) was found to be 0.0003 s⁻¹ in test [10], 4.43e-05 s⁻¹ in [12], 0.000116 s⁻¹ in test [13] and 0.00016 s⁻¹ in test [14]. Moreover, the kon in test [10] was found to be 715000 M⁻¹ s⁻¹; in [12], 630000 M⁻¹ s⁻¹; in [13] it was 285000 M⁻¹ s⁻¹; in [14], 306000 M⁻¹ s⁻¹. The binding result with human serum albumin [5] and with recombinant mouse TfR2 [8] was “no binding” throughout. For the same molecule, the EC50 in test [6] was 2.45 nM; in test [11], 2.96 nM; in test [7], 11.9 nM. Further, in test [9], the “Octet signal as second antibody after 8D3” value amounted to 0.546.

B4: IDUA-clone 10-hFc (Fc fusion)
chain (part 1 of 2): B3 chain
chain (part 2 of 2): APHLVHVDAARALWPLRRFWRSTGFCPPLPHSQADQYVLSWDQQLNLAYVGAVPHRGIKQVRTHWLLELVTTRGSTGRGLSYNFTHLDGYLDLLRENQLLPGFELMGSASGHFTDFEDKQQVFEWKDLVSSLARRYIGRYGLAHVSKWNFETWNEPDHHDFDNVSMTMQGFLNYYDACSEGLRAASPALRLGGPGDSFHTPPRSPLSWGLLRHCHDGTNFFTGEAGVRLDYISLHRKGARSSISILEQEKVVAQQIRQLFPKFADTPIYNDEADPLVGWSLPQPWRADVTYAAMVVKVIAQHQNLLLANTTSAFPYALLSNDNAFLSYHPHPFAQRTLTARFQVNNTRPPHVQLLRKPVLTAMGLLALLDEEQLWAEVSQAGTVLDSNHTVGVLASAHRPQGPADAWRAAVLIYASDDTRAHPNRSVAVTLRLRGVPPGPGLVYVTRYLDNGLCSPDGEWRRLGRPVFPTAEQFRRMRAAEDPVAAAPRPLPAGGRLTLRPALRLPSLLLVHVCARPEKPPGQVTRLRALPLTQGQLVLVWSDEHVGSKCLWTYEIQFSQDGKAYTPVSRKPSTFNLFVFSPDTGAVSGSYRVRALDYWARPGPFSDPVPYLEVPVPRGPPSPGNP
notes: Order of the parts follows the text's 'VNAR-Fc-IDUA'; Made in CHO cells; also called clone 10 VNAR-Fc-IDUA fusion protein; not shown: human Fc fragment (hFc)
B4: the EC50 in test [11] came to 8.33 nM.

B5: SEQ ID NO 50 (VNAR clone displayed on phage) (VNAR)
VNAR: ARVDQTPRSVTKETGESLTINCVLRDASYALGSTCWYRKKSGSTNEESISKGGRYVETVNSGSKSFSLRINDLTVEDGGTYRCGVMNNVSQTWVRCDSQVMSQQCVQQSAACGDGTAVTVNA
notes: as for B1
B5: the binding result was “no binding” with human serum albumin [1], “binds” in test [2], “no binding” with recombinant mouse TfR2 [3] and “binds” in test [4].

B6: IDUA-clone 1-hFc (Fc fusion)
chain (part 1 of 2): ARVDQTPQTITKETGESLTINCVLRDNNCALSTTYWYRKKSGSTNEENISKGGRYVETVNSGSKSFSLKINDLTVEDSGTYRCNVRDVQACGNDWVWLDVYGGGTVVTVNA
chain (part 2 of 2): B4 chain (part 2 of 2)
notes: Order of the parts follows the text's 'VNAR-Fc-IDUA'; Made in CHO cells; also called clone 1 VNAR-Fc-IDUA fusion protein; not shown: human Fc fragment (hFc)
In the case of B6, the concentration for a half-maximal effect (EC50) in [11] amounted to 7.24 nM.

B7: SEQ ID NO 49 (VNAR clone displayed on phage) (VNAR)
VNAR: ARVDQTPRSVTKETGESLTINCVLRDASYELGSTCWYRKKSGSTNEESISKGGRYVETVNSGSKSFSLRINDLTVEDGGTYRCGVISQYKSYTLWCDALYRSLGCECARAACGDGTAVTVNA
notes: as for B1
On to B7, for which the binding result in the test with human serum albumin [1] is “no binding”; in test [2], “binds”; with recombinant mouse TfR2 [3] it was “no binding”; in test [4], “binds”.

B8: Clone 7 VNAR-Fc fusion protein (Fc fusion)
chain: ARVDQTPQTITKETGESLTINCVLRDSNCELSSTYWYRKKSGSTNEARISKGGRYVETVNSGSKSFSLKINDLTVEDSGTYRCNVLTTDSYDLGDVYGDGTVVTVNA
notes: as for B2
Turning to B8, the binding result with human serum albumin [5] and with recombinant mouse TfR2 [8] was “no binding” in each case. Besides, the values for the EC50 in test [6] and in test [7] were 463 nM and 5370 nM, respectively.

B9: Clone 16 VNAR-Fc fusion protein (Fc fusion)
chain: ARVDQTPQTITKETGESLTINCVLRDSNCALPSTYWYRKKSGSTNEESISKGGRYVETVNSGSKSFSLRINDLTVKDSGTYRCKVDLPRYLCFSQYGRWYDVYGDGTAVTVNA
notes: as for B2
As for B9, the values for the EC50 in test [6] and in [7] were 3110 nM and 7180 nM, respectively.
